Test results: paper doi:10.1101/2024.02.15.580443
Read-outs that look alike come from different tables or passages of the source.

What was measured:
[1] = target: RadA from Streptococcus pneumoniae (strep-tagged, for cryoEM) (Streptococcus pneumoniae) (UniProt Q8DRP0); test: cryo-EM structure
[2] = target: ComM from Legionella pneumophila (C-terminal His6-tag) (Legionella pneumophila Paris) (UniProt Q5ZXZ0); test: cryo-EM structure
[3] = target: ComM from Legionella pneumophila (C-terminal His6-tag) (Legionella pneumophila Paris) (UniProt Q5ZXZ0); test: cryo-EM structure; remark: listed apart in the source
[4] = target: RadA R301A mutant from Streptococcus pneumoniae (for biochemical assays) (Streptococcus pneumoniae (R800 derivative strain)) (UniProt Q8DRP0)

Work on “RadA from Streptococcus pneumoniae (strep-tagged, for cryoEM) (from UniProt Q8DRP0 1-420) (enzyme)” yielded a stoichiometry N [1] of 6.

For “ComM from Legionella pneumophila (C-terminal His6-tag) (from UniProt Q5ZXZ0 1-503) (enzyme)”, the stoichiometry N [2] was 12 and the stoichiometry N [3] was 6.

Substance “RadA R301A mutant from Streptococcus pneumoniae (for biochemical assays) (from UniProt Q8DRP0 2-419) (enzyme)” has a stoichiometry N [4] of 6.
